In article PMC5078793:

Target: LTBP-1 C-terminal region (UniProt Q14766)
Assay: SPR; Biacore; LTBP-1 C-terminal region immobilised by amine coupling on CM5 (methods); 10 mM HEPES pH 7.4, 0.1 M NaCl, 0.5 mM CaCl2, 0.005% P20

Chain of LTBP-1 C-terminal region (Q14766 24-1721): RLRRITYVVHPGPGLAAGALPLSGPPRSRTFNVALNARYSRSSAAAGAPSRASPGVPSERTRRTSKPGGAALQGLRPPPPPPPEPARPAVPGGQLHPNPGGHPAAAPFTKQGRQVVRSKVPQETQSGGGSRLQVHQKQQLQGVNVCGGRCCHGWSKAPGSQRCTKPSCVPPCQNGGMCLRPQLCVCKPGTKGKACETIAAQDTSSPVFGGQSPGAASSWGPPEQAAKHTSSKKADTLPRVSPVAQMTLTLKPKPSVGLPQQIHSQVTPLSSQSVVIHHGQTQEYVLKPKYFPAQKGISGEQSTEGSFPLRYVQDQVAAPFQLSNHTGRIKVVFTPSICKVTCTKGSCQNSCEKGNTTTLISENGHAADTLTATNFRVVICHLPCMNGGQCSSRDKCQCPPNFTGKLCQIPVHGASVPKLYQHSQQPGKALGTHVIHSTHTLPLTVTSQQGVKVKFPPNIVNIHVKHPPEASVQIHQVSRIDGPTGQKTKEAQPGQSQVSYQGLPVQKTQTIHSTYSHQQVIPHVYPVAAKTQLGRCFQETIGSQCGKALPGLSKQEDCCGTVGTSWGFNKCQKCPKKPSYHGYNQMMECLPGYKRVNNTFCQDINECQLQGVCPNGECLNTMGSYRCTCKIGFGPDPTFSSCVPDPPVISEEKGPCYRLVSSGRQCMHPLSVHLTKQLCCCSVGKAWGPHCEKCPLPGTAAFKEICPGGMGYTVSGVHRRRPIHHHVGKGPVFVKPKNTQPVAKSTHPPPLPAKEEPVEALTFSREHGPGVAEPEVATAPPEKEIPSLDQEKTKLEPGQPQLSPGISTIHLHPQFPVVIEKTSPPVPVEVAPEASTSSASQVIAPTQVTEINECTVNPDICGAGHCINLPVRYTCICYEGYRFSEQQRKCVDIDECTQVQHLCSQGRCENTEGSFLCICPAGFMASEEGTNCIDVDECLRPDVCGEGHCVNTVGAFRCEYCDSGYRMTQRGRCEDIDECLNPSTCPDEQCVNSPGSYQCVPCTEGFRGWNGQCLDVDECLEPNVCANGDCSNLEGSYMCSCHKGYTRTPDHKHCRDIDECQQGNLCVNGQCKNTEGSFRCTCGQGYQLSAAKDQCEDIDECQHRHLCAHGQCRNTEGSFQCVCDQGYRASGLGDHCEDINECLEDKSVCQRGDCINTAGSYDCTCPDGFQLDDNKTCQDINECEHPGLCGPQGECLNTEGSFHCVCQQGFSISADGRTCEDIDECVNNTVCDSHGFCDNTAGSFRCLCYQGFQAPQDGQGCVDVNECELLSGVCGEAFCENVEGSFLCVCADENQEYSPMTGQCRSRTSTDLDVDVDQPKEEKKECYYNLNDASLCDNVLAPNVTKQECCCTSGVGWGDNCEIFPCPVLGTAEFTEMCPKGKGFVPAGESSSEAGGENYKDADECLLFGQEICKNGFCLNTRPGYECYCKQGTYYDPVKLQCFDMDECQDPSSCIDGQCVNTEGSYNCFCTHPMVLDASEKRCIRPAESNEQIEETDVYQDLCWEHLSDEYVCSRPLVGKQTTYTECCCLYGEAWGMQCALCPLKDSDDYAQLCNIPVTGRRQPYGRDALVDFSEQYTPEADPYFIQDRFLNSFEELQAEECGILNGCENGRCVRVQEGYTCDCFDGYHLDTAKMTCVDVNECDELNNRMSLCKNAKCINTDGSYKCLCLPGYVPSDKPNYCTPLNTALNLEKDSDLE

Kd: 59 nM
B1: ADAMTS6 C-terminal region (domain or fragment)
chain: DGGWGPWSLWGECSRTCGGGVSSSLRHCDSPAPSGGGKYCLGERKRYRSCNTDPCPLGSRDFREKQCADFDNMPFRGKYYNWKPYTGGGVKPCALNCLAEGYNFYTERAPAVIDGTQCNADSLDICINGECKHVGCDNILGSDAREDRCRVCGGDGSTCDAIEGFFNDSLPRGGYMEVVQIPRGSVHIEVREVAMSKNYIALKSEGDDYYINGAWTIDWPRKFDVAGTAFHYKRPTDEPESLEALGPTSENLIVMVLLQEQNLGIRYKFNVPITRTGSGDNEVGFTWNHQPWSECSATCAGGVQRQEVVCKRLDDNSIVQNNYCDPDSKPPENQRACNTEPCPPEWFIGDWLECSKTCDGGMRTRAVLCIRKIGPSEEETLDYSGCLTHRPVEKEPCNNQSCPPQWVALDWSECTPKCGPGFKHRIVLCKSSDLSKTFPAAQCPEESKPPVRIRCSLGRCPPPRWVTGDWGQCSAQCGLGQQMRTVQCLSYTGQASSDCLETVRPPSMQQCESKCDSTPISNTEECKDVNKVAYCPLVLKFKFCSRAYFRQMCCKTCQGH
